According to patent publication US20190276531A1:

What was measured:
[1] = target: human TIM-3 ECD fused C-terminally to human IgG1 Fc (made in-house, ExpiCHO) (human) (UniProt Q8TDQ0); assay: SPR (IBIS MX96); TIM-3 ECD-Fc captured on anti-human IgG Fc sensor, Fab injected 1-100 nM; 1:1 Langmuir fit
[2] = target: cynomolgus TIM-3 ECD fused C-terminally to human IgG1 Fc (made in-house, ExpiCHO) (cynomolgus monkey (Macaca fascicularis); human); assay: as above
[3] = target: cynomolgus TIM-3 Fc fusion antigen (Sino Biologicals) (cynomolgus monkey (Macaca fascicularis)); assay: ELISA; EC50 on cynomolgus TIM-3 over EC50 on human TIM-3
[4] = target: cynomolgus TIM-3 Fc fusion antigen (Sino Biologicals) (cynomolgus monkey (Macaca fascicularis)); assay: ELISA; TIM-3 Fc fusion coated at 1 µg/ml, antibody titrated 2-fold from 1000 nM, HRP secondary
[5] = target: human TIM-3 Fc fusion antigen (Sino Biologicals) (human) (UniProt Q8TDQ0); assay: as above
[6] = target: R-PE-labeled human TIM-3-Fc chimera protein (R&D Systems) (human) (UniProt Q8TDQ0); assay: flow cytometry competition: R-PE-labelled TIM-3-Fc pre-mixed with titrated antibody, then binding to phosphatidylserine-positive apoptotic Jurkat cells; blocked ligand: phosphatidylserine [continued) C]
[7] = target: R-PE-labeled human TIM-3-Fc chimera protein (R&D Systems) (human) (UniProt Q8TDQ0); assay: flow cytometry competition; R-PE TIM-3-Fc preincubated with 3.125 µg/ml antibody, then apoptotic Jurkat cells showing phosphatidylserine
[8] = target: R-PE-labeled human TIM-3-Fc chimera protein (R&D Systems) (human) (UniProt Q8TDQ0); assay: flow cytometry competition: R-PE-labelled TIM-3-Fc pre-mixed with titrated antibody, then binding to phosphatidylserine-positive apoptotic Jurkat cells (MFI); blocked ligand: phosphatidylserine; unit taken from the axis log(Concentration) µg/ml [continued) C]

cynomolgus TIM-3 ECD fused C-terminally to human IgG1 Fc (made in-house, ExpiCHO) (cynomolgus monkey (Macaca fascicularis); human), sequence (chain, as listed by the source limits assumed): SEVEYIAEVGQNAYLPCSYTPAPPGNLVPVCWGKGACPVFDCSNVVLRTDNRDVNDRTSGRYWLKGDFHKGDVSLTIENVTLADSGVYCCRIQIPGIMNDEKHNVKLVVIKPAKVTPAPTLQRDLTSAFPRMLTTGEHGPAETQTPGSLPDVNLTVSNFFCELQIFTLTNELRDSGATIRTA

What does the source list for “Fab fragment of 18564 ABTIM3 (reference analogue)”?
Kd [1]: 0.77 nM; Kd [2]: 25 nM

What does the source list for “reference antibody analogue 18564 ABTIM3”?
Ratio Cynomolgus/Human EC50 [3]: 1; EC50 [4]: 0.07 nM; EC50 [5]: 0.07 nM

With “reference anti-TIM-3 antibody 18571.18571 (humanized ABTIM3 analogue)” as the substance, how does the TIM-3 binding (MFI) at 0.003 µg/ml antibody [6] read?
Its TIM-3 binding (MFI) at 0.003 µg/ml antibody is 8700 MFI.

And the TIM-3 binding (MFI) at 0.012 µg/ml antibody [6]?
Its TIM-3 binding (MFI) at 0.012 µg/ml antibody is 8730 MFI.

And the TIM-3 binding (MFI) at 0.049 µg/ml antibody [6]?
The TIM-3 binding (MFI) at 0.049 µg/ml antibody was 8890 MFI.

And the TIM-3 binding (MFI) at 0.195 µg/ml antibody [6]?
Its TIM-3 binding (MFI) at 0.195 µg/ml antibody is 8800 MFI.

And the TIM-3 binding (MFI) at 0.781 µg/ml antibody [6]?
The TIM-3 binding (MFI) at 0.781 µg/ml antibody was 4480 MFI.

And the TIM-3 binding (MFI) at 3.125 µg/ml antibody [6]?
The TIM-3 binding (MFI) at 3.125 µg/ml antibody was 184 MFI.

What about the TIM-3 binding (MFI) at 12.5 µg/ml antibody [6] of the same substance?
The TIM-3 binding (MFI) at 12.5 µg/ml antibody was 160 MFI.

What about the TIM-3 binding (MFI) at 50 µg/ml antibody [6] of the same substance?
The TIM-3 binding (MFI) at 50 µg/ml antibody was 157 MFI.

What about the TIM-3-Fc binding to PtdS-positive cells left, % of the binding with non-blocking antibody 15338.15338 [7] of the same substance?
The TIM-3-Fc binding to PtdS-positive cells left, % of the binding with non-blocking antibody 15338.15338 was 3.2%.

What about the IC50 [8] of the same substance?
The IC50 was 0.782 µg/mL.
